B1: Peripheral plasma membrane protein CASK, residues 488 to 569; numbered along this chain, O14936 (parent)
chain: VRLVQFQKNTDEPMGITLKMNELNHCIVARIMHGGMIHRQGTLHVGDEIREINGISVANQTVEQLQKMLREMRGSITFKIVP

Variants of: B1
Experiment: abundance fitness (aPCA) (normalised: wild type 0, dead -1); higher = more abundant; growth selection in yeast, the domain comes from the species named
Details: Homo sapiens

Abundance fitness: each site, then its substitutions
Q66: F -0.236 | P -0.521 | C -0.055 | W -0.228 | Y -0.038 | M -0.012 | K -0.128 | E 0.018 | R -0.104 | L -0.094 | S -0.012 | G -0.038 | T -0.012 | N -0.016 | I -0.094 | V -0.141 | A -0.04 | H -0.043
V62: H -0.131 | A -0.007 | S 0.003 | P -0.032 | C -0.044 | Q -0.068 | I -0.025 | F -0.238 | L -0.018 | M -0.052 | R -0.1 | K -0.114 | E 0.015 | W -0.154 | N 0.01 | T -0.007 | D -0.031 | Y -0.172 | G -0.067
E63: L -0.092 | N -0.043 | S -0.035 | M -0.13 | C -0.08 | T -0.109 | W -0.123 | G -0.027 | I -0.108 | V -0.098 | A -0.048 | F -0.023 | R -0.121 | Q -0.009 | Y -0.079
I55: L -0.041 | D -0.035 | P -1.05 | G -0.124 | H -0.04 | V -0.035 | W -0.074 | E 0.026 | A -0.016 | N -0.113 | C 0.026 | M 0.008 | R 0.007 | K -0.001 | T -0.003 | S -0.033 | Y -0.061 | Q 0.035 | F -0.065
E51: A -0.096 | G -0.048 | F -0.441 | T -0.301 | L -0.442 | S 0.102 | R -0.264 | V -0.714 | C -0.34
A58: N -0.076 | C -0.042 | M -0.038 | L -0.052 | D -0.037 | V -0.025 | E 0.017 | K 0.053 | G -0.01 | P -0.327 | H -0.075 | S -0.035 | I 0.02 | W -0.104 | F -0.087 | T -0.017
Q64: R -0.066 | Y 0.005 | M -0.042 | K -0.018 | N -0.025 | G -0.064 | F 0.007 | T -0.025 | E -0.008 | C -0.004 | D 0.007 | V -0.061 | S -0.021 | L -0.08 | W -0.093 | I 0.003 | P -0.334
I52: L -0.115 | V -0.036 | N -0.199 | T -0.141 | R -0.649
E48: A -0.105 | S -0.071 | I -0.073 | D -0.108 | P -1.09 | C -0.017 | Q -0.069 | W -0.059 | K -0.19 | F -0.362 | L -0.161 | H -0.108 | M -0.158 | N -0.326 | R -0.037 | T -0.123 | V -0.06
Q60: F 0.013 | V -0.118 | R -0.007 | M -0.047 | P -0.984 | T -0.09 | D -0.154 | H -0.014 | W -0.063 | A -0.045 | L -0.051 | E -0.085 | N 0.005 | Y -0.022 | S -0.042 | C -0.01
S56: A 0.014 | F -0.229 | E -0.018 | K 0.02 | M -0.102 | V -0.064 | T -0.028 | G -0.02 | W -0.275 | H -0.09 | I -0.155 | D 0.023 | P 0.009 | Q -0.06 | L -0.08 | N -0.032 | R -0.052
V57: D -0.915 | H -0.818 | F -0.42 | G -0.758 | I 0.007 | E -0.965 | Y -0.578 | W -0.854 | Q -0.8 | T 0.027 | R -0.973 | C -0.046 | N -0.809 | A -0.061 | K -0.745 | P -0.041 | L -0.126 | M -0.079 | S -0.158
G54: P -0.911 | M -0.299 | W -0.549 | L -0.636 | A -0.191 | T -0.17 | V -0.797 | N -0.16 | R -0.193 | Q -0.085 | Y -0.056 | H -0.076 | E -0.076 | F -0.043 | C -0.254 | S -0.071
K67: C 0.013 | D 0.02 | F -0.023 | E 0.009 | A -0.022
N59: C -0.114 | D -0.038 | K -0.068 | E -0.001 | I -0.324 | F -0.016 | A -0.047 | S -0.045 | W -0.157 | R -0.09 | V -0.164 | Y -0.1 | H -0.006 | Q -0.09 | G 0.02 | M -0.099 | T 0.003
G46: R -0.669 | T -0.992 | Y -1.02 | M -0.553 | V -1.04 | Q -0.61 | N -0.128 | P -0.877 | S -0.491 | W -0.951
L65: V 0.025 | G -0.817 | F -0.23 | W -0.049 | N -0.318 | M -0.057 | T 0.006 | K -0.878 | E -0.889 | D -1.07 | S -0.183 | C -0.048 | P -1.02 | A -0.166 | R -0.449 | Q -0.33 | H -0.402
I49: M -0.264 | C -0.855 | F -0.721 | K -0.823 | L -0.089 | G -1.05 | D -0.24 | V 0.001 | Q -1 | A -0.856 | E -0.992 | T -0.576 | P -0.743 | R -0.858 | N -0.804 | S -0.886 | Y -0.998 | W -1.04
R50: T -0.028 | K 0.028 | I 0.034 | Y -0.174 | A -0.025 | H -0.148 | E -0.068 | F -0.211 | W -0.118 | C 0.038 | Q -0.018 | P -0.774 | M 0 | G -0.315 | N -0.054 | S -0.079
N53: H -0.7 | S -0.183 | K -0.816 | I -0.8 | E -0.327 | P -0.719 | G -0.188 | Y -0.525 | L -0.903 | T -0.567 | D -0.27 | R -0.529 | Q -0.186 | W -0.972 | M -0.357 | C -0.208 | V -0.932 | A -0.308
T61: R -0.095 | F -0.457 | L -0.41 | H -0.074 | N 0.011 | Q -0.047 | G -0.015 | S -0.029 | E -0.037 | W -0.853 | P -0.048 | A -0.084 | C -0.129 | I -0.642 | V -0.329 | M -0.294 | K -0.054
D47: T -0.788 | C -0.552 | A -0.708 | R -0.939 | V -0.859 | H -1.03 | Y -0.832 | N -0.497 | S -0.711 | I -0.694 | E -0.323 | L -0.878 | K -1.04

Reference: the Human Domainome abundance scans (Beltran et al. 2025)
